What is called koff is a measure of how fast the partners let go of each other.

In experiment [1] the target is C-terminal Fc-tagged human ACE2 recombinant protein (human, UniProt Q9BYF1). Briefly: SPR. For orientation: Surface plasmon resonance follows binding to a sensor surface in real time, without labels.
The target of experiment [2] is His-tagged SARS-CoV-2 S1-RBD recombinant protein, wild type (SARS-CoV-2, UniProt P0DTC2 319-541). Briefly: SPR.

Sequence of C-terminal Fc-tagged human ACE2 recombinant protein (Q9BYF1 18-740): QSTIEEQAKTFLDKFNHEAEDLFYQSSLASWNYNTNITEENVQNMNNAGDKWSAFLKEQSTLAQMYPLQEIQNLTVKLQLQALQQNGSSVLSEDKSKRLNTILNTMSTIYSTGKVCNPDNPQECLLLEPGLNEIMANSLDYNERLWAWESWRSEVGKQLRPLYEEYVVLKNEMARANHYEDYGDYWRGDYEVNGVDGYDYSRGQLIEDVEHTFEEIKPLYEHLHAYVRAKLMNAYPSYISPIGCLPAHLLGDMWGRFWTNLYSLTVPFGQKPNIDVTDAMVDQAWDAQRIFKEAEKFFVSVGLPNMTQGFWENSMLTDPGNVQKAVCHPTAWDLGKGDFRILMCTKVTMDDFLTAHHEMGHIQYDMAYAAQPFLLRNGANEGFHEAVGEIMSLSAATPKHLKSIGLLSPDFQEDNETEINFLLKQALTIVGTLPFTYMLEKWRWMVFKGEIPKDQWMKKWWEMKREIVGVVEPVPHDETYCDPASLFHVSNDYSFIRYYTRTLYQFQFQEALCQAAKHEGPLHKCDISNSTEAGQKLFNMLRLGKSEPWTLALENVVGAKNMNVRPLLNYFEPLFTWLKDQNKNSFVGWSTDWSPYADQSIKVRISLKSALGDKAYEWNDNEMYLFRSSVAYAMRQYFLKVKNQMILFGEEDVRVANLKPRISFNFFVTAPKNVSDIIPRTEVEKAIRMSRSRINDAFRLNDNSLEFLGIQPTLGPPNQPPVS

B1: monoclonal antibody 127 (antibody, V domains shown)
VH: QVQLQQPGAELVKPGASVKLSCKASGYTFTSYWMHWVKQRPGQGLEWIGEINPSNGRKNYNEKFKSKATLTVDKSSSTAYMQLSSLTSEDSAVYYCVRGDYGSSYYWYFDVWGAGTTVTVSS
VL: not shown
As for B1, the figures for the koff in experiment [1] and in experiment [2] were 0.000442 s⁻¹ and 0.00013 s⁻¹, respectively.

B2: monoclonal antibody 150 (antibody, V domains shown)
VH: B1 VH
VL: not shown
For the molecule B2, the koff in experiment [1] came out at 0.00039 s⁻¹; in experiment [2], 0.000441 s⁻¹.

(Values after article PMC9114768 (2022).)
